Here are results for two substances from patent publication US20230203117A1.

Bounds are passed on as bounds.

This assay addresses IL-10Rβ on human primary monocytes and CD8 T cells (human) (UniProt Q08334). As to the kind of experiment: cell-based or functional assay.

Sequence of IL-10Rβ on human primary monocytes and CD8 T cells (human) (Q08334 20-325): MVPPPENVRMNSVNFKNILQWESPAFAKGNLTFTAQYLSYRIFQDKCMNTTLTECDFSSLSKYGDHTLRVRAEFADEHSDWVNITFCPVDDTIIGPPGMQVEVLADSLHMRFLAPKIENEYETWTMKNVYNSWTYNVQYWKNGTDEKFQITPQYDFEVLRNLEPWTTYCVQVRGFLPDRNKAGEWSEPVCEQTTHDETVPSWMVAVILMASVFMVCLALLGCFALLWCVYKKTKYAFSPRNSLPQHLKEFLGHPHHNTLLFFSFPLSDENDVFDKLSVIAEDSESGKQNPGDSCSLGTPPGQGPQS
Sequence of wild type IL-10 dimer (WTD) (P22301 other isoform, or with tags, fused parts or gaps): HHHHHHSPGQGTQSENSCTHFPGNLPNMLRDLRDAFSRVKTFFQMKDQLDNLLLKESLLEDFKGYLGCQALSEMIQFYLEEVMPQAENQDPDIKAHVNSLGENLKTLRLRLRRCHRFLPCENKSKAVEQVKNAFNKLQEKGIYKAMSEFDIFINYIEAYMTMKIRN

“wild type IL-10 dimer (WTD) (from UniProt P22301 19-178) (ligand)” yielded a granzyme B production in CD8 T cells, flow cytometry of 2.5 fold and a reduction of HLA-DR surface levels in human primary monocytes of 50%.
“wild type monomeric IL-10 (WTM), recombinant (ligand)”: the pSTAT1 and pSTAT3 in human CD8 T cells, amplitude of activation (% of the dimeric molecules) is below 25; the pSTAT1 and pSTAT3 in human monocytes, amplitude of activation (percentage of WTD) is below 50; the reduction of HLA-DR surface levels in human primary monocytes was found to be 20%.
